In US20250043002A1:

Biological target: human PD1 expressed on Jurkat/AP1-Luc/hPD1 cells (human) (UniProt Q15116)
Assay: cell-based or functional assay

human PD1 expressed on Jurkat/AP1-Luc/hPD1 cells (human), sequence (Q15116 25-288): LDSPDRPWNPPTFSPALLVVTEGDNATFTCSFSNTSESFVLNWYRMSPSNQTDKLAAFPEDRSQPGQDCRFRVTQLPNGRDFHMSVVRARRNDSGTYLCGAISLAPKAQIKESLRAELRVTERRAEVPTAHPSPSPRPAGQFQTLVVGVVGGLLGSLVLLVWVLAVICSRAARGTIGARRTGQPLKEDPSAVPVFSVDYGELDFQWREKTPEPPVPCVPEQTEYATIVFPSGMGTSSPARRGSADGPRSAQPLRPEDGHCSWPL

B1: REGN2810 (cemiplimab, LIBTAYO), anti-PD1 antibody (antibody, INN chains, looked up, V domains shown)
VH: EVQLLESGGVLVQPGGSLRLSCAASGFTFSNFGMTWVRQAPGKGLEWVSGISGGGRDTYFADSVKGRFTISRDNSKNTLYLQMNSLKGEDTAVYYCVKWGNIYFDYWGQGTLVTVSS
VL: DIQMTQSPSSLSASVGDSITITCRASLSINTFLNWYQQKPGKAPNLLIYAASSLHGGVPSRFSGSGSGTDFTLTIRTLQPEDFATYYCQQSSNTPFTFGPGTVVDFR
In the case of B1, the AP-1 luciferase EC50, WSU-DLCL2/hPD-L1 + Jurkat/AP1-Luc/hPD1 is reported as 0.29 nM and the AP-1 luciferase MAX (RLU), WSU-DLCL2/hPD-L1 + Jurkat/AP1-Luc/hPD1 is reported as 1.1e+06 RLU.
